In patent publication US20210284724A1 (I MAB BIOPHARMA US, published 2021):
Positions count from the first letter of the chain named.

T1: human CXCL13 (human, UniProt O43927 23-109)
T1 construct: also called huCXCL13; rhCXCL13
T1 sequence (looked up): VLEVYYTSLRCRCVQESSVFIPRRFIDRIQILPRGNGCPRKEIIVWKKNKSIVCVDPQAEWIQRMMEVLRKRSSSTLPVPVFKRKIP

T2: cynomolgus CXCL13 (cynomolgus, UniProt H6WS58 23-109)
T2 construct: also called cynoCXCL13; Cyno CXCL13
T2 sequence: T1 sequence (looked up) with S8H, L32S, I52V, M65I, V68M, R72K, L77P

T3: mouse CXCL13 (mouse, UniProt O55038 22-109)
T3 construct: also called rmCXCL13
T3 sequence (looked up): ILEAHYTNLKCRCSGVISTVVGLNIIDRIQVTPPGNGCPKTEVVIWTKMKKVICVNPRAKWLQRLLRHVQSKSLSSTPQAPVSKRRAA

B1: 19H7E10 (antibody, V domains shown)
VH: EVQLQQSGPELVKPGASVKISCQASGYAFSDYYMNWVKQSHGKRLEWIGDINPNNDGTTYNQKFKDKATLTVDKSSSTAYMDLRSLTSEDSAVYYCARLSWSFFAMDYWGQGTSVTVSS
VL: DIVMTQSHKFMSTSVGDRVSITCKASQDVSSGVAWYQQKPGQSPKVLIYSASHRHTGVPDRFTASGSGTDFTFTISSVQAEDLAVYYCQQYYNTPWTFGGGTKLEIK
notes: Hybridoma mAb
B2: 156H3H7 (antibody, V domains shown)
VH: EVQLQQSGPELVKPGASVKISCKASGYTFTDYYMNWVRQSHGKSLEWIGDINPNNGDTTYNQKFKGKATLTVDTSSSTVYMELRSLTSEDSAVYYCAGYDEDHYAMDYWGQGTSVTVSS
VL: B1 VL with I2Y, S31T, K39N, V46L, H55Y, A64G, N93T
notes: Hybridoma mAb
B3: 168D6F2 (antibody, V domains shown)
VH: QVQLQQPGAELVKPGASVKLSCQASGYTFTSYWMHWVKQRPGRGLEWIGGIDPDSGATKDNEKFKTKATLTVDKPSRTAYIQLSSLTSEDSAVFYCARGSTVVAPGDYFAMDYWGQGTSVTVSS
VL: DIVLTPSPTSLAVSLGQRATMSCRASESVDNYGISFMHWYQQKPGQPPKLLIYRASNLDSGIPARFSASGSRTDFTLTINPVETDDVATYYCQQSNKDPWTFGGGTKLEIK
notes: Hybridoma mAb
B4: 177D2G10 (antibody, V domains shown)
VH: QIALKESGPGILQSSQTLSLTCSFSGFSLSTSGMHVGWFRQPSGKTLEWLAHIYWDDDKRYNPSLKSRLTISKDTSRNQVFLNLTNVDTADTATYYCARRGGDYDYDEGFDYWGQGTTLTVSS
VL: DVVMTQTPLSLPVSLGDQASISCRSSQSLVHSNGFTYLHWYLQKPGQSPKLLIYKVSNRFSGVPDRFSGSGSGTEFTLRISRVEAEDLGVYFCSQSTHVPYTFGGGTKLEIK
notes: Hybridoma mAb
B5: 408E3F3 (antibody, V domains shown)
VH: HVTLRESGPGVLQPSKTLSLTCSFSGFSLSTSAMVVSWIRQSSGMSLEWLAAIDWEGDKYYNPSLESRLTVSRDISDTQVFLRITSVDVADTATYYCAVMSSADSHSVLDAWGQGVSVTVSS
VL: DIKMTQSPSFLSASVGDRVTINCKASQNIHNYLNWYQQKFGEAPRLLIYNTNNLQTGIPSRFSGSGSGTDFTLTISSLQPEDVATYFCLQHSSSLTFGSGTKLEIN
notes: Hybridoma mAb
B6: 119H10D6 (antibody, V domains shown)
VH: QVQLQQSGAELMKPGASVKISCKATGYTFNTYWIEWVKQRPGHGLEWIGEILPGSESTDYNEKFKDKATFTADISSNTAYMQLSSLTSEDSAVYYCARDYYGYYFDYWGQGTTLTVSS
VL: DIVMTQSHKFMSTSVGDRVSITCKASQDVSTAVVWYQQKPGQSPKLLIYSASYRYTGVPDRFSGSGSGTDFTFTISSVQAEDLAVYYCQQHYSSPRTFGGGTKLEIK
notes: Hybridoma mAb
B7: 130D6G1 (antibody, V domains shown)
VH: B6 VH with A24S, N30S, E56D, D59N, Y60S, K65E, D66G, I74T, Y103F
VL: B6 VL with S20N, V34A, A51T, S63T, S77N, S93T, S94T
notes: Hybridoma mAb
B8: 168A2D4 (antibody, V domains shown)
VH: EVQLQQSGPELVKPGASVKISCKASGNTLTDYYMNWVKQSHGKSLEWIGDINPNNGDIIYNQKFKGKATLTVAKSSSTAYMELRSLTSEDSAVYYCAIYYDPYYHAMDYWGQGTSVTVSS
VL: B6 VL with G16R, A32G, V34A, S63T, H91Q, S94V, R96L, G100A, I106L
notes: Hybridoma mAb
B9: 415A3D1F4 (antibody, V domains shown)
VH: EVKLLESGGGLVQAGGSMRLSCGAFGFTVTDFYINWIRQPAGKAPEWLGFMRNKANGYTTEYNPSVKGRFTISRNNTQNMPYLQMNTLRTEDTAIYYCARSRYNADDYYVGVMDVWGQGASVTVSS
VL: DIQMTQFPASLSASLGETVSIECLASEDIYNNLAWYQQKPGKSPQLLIYYTNSLQDGVPSRFSGTGSGTQYSLKINSLESEDAATYFCLQDSEYPWTFGGGTKLKLK
notes: Hybridoma mAb
B10: 411A11E9 (antibody, V domains shown)
VH: EVQLVESGGGLVQPGGSLKLSCVVSGFTFSDYYMAWVRQTPTKGLEWVASINYDGGDTYYRDSVKGRFTVSRNNAKSSLFLQMDSLRSEDTATYYCKTEEDYDGSYVMDAWGQGASVIVSS
VL: DIQMTQSPSFLSASVGDRVTISCKASQNINKELTWYQQKLGKAPKRLIYNTNILQTGIPSRFSGSGSNTDYTLTISSLQPEDFATYFCLQQSSLYTFGAGTKLELK
notes: Hybridoma mAb
B11: 64C10G1 (antibody, V domains shown)
VH: EVQLVESGGGLVKPGGSLKLSCAASGFTFSSYAMSWVRQTPEKRLEWVATISDGGSDAYYPDNVKGRFTISRDNAKNNLYLQMSHLKSEDTAMYYCARDYYGSGYEDSPMDYWGQGTSVTVSS
VL: DIQMTQSPSSLSASLGGKVTITCKASQDINKYIAWYQHKPGKGPRLLIHYTSTLQPGIPSRFSGSGSGRDYSFSISNLEPEDFATYYCLQYDNLYTFGGGTKLEIK
notes: Hybridoma mAb
B12: 175E3B10 (antibody, V domains shown)
VH: QVTLKESGPGILQPSQTLSLTCSFSEFSLSVFGMGVGWIRQPSGKGLEWLAHIWWDDEKYYNPALKSRLTISKDTSKNQVFLKIANVDTADTATYFCARIDGYYDFDYWGQGTTLTVSS
VL: DVLMTQTPLSLPVSLGTQASIFCRSSHSIVQDNGNTYLQWYLQKPGQSPKLLIYKVSNRFSGVPDRFSGSGSGTDFTLKISRVEAEDLGVYYCFQGSYVPYTFGGGTKLEIK
notes: Hybridoma mAb
B13: 184H10B5 (antibody, V domains shown)
VH: B12 VH with F96Y
VL: B12 VL with F22S, K50Q
notes: Hybridoma mAb
B14: 178E2B3 (antibody, V domains shown)
VH: QVQLQQSGAELVRPGTSVKVSCKASGYAFTNHLIEWVKQRPGQGLEWIGVINPGSGGTKYNEKFKGKATVTADKSSSTVYMQLNSLTSEDSAVYFCARSSDGYYEEDYFDYWGQGTTLTVSS
VL: QIVLTQSPAIMSASPGEKVTMTCSASSSVNYMQWYQQKSGTSPKRWIYDTSELASGVPDRFSGSGSGTSYSLTISSMEAEDVATYYCQQWSSDPITFGAGTKLELK
notes: Hybridoma mAb

The binders below were run against T1, human CXCL13 (assay: ELISA, coated antigen).

EC50	Binder
0.0385 µg/mL	B1
0.0134 µg/mL	B2
0.0218 µg/mL	B3
0.0544 µg/mL	B4
0.0237 µg/mL	B5
0.0393 µg/mL	B6
0.0192 µg/mL	B7
0.134 µg/mL	B8
0.0132 µg/mL	B9
0.0201 µg/mL	B10
0.0314 µg/mL	B11
0.0326 µg/mL	B12
0.0272 µg/mL	B13
0.0153 µg/mL	B14

What follows are binders tested against T2, cynomolgus CXCL13 (assay: ELISA, coated antigen).

EC50	binding result	Binder
0.196 µg/mL		B1
	no binding	B2
	no binding	B3
	no binding	B4
0.0706 µg/mL		B5
	no binding	B6
	no binding	B7
	no binding	B8
0.0711 µg/mL		B9
0.252 µg/mL		B10
0.347 µg/mL		B11
	no binding	B12
	no binding	B13
	no binding	B14

The binders below were run against T3, mouse CXCL13 (assay: ELISA, coated antigen).

binding result	Binder
no binding	B1
no binding	B2
no binding	B3
no binding	B4
no binding	B5
no binding	B6
no binding	B7
no binding	B8
no binding	B9
no binding	B10
no binding	B11
no binding	B12
no binding	B13
no binding	B14

Each binder was assayed against T1, human CXCL13 (assay: cell-based blocking ELISA, CXCL13 to CHO-K1-CXCR5).
Experimental: Splenocytes were electro-fused with mouse myeloma cell line SP2/0 cells and plated into 96-well culture plate. The hybridoma supernatants were tested by ELISA binding assay for anti-human CXCL13 binders. Supernatants of positive binding clones were screened for function in blocking of human CXCL13 binding to its […] CXCR5 by Cell-based receptor blocking ELISA assay. Briefly, 5×10⁴ CHO-K1-CXCR5 cells were plated in 96-well plate with 100 μl of culture medium and incubated at 37° C. overnight. Cells were fixed with 100 μl of 2% PFA at RT for 1 hr after washing with PBS for 1 time. Blocking was done with 1% BSA in PBST for 1 hr at RT. Supernatants were diluted with PBS and pre-incubated with equal volume of 0.3 μg/ml human CXCL13 for 30 min at RT. 100 μl of antibody-antigen complex was then transferred into each cell wells for 30 min at RT. The samples were washed with 1×PBST for 3 times and 100 μl of 3 μg/ml of human Mab5261 antibody was add into each well to capture human CXCL13 and anti-human Fc-HRP was used to indirectly detect human CXCL13 when it bound to CHO-K1-CXCR5 cells. […] Reading was done at […].
Those antibodies were purified from hybridoma supernatants by binding with Protein G column and characterized by ELISA binding assays and cell-based blocking ELISA assays. […] 11/20 clones bound to both human CXCL13 and cynomolgus CXCL13 appeared to completely block human CXCL13 to human CXCR5. 11 blockers bound to both huCXCL13 and cynoCXCL13 were produced as chimeric human IgG1 antibodies for further Characterization.

IC50	Binder
2.22 µg/mL	B1
4.59 µg/mL	B2
2.09 µg/mL	B3
~912 µg/mL	B4
1.49 µg/mL	B5
0.533 µg/mL	B6
1.23 µg/mL	B7
0.29 µg/mL	B8
0.698 µg/mL	B9
0.793 µg/mL	B10
0.33 µg/mL	B11
1.42 µg/mL	B12
4.85 µg/mL	B13
0.974 µg/mL	B14
